Assays:
[1] = Isoelectric point of β-glucosidase (G3ase) by IEF-PAGE; format: physicochemical, Acetobacter xylinum subsp. sucrofermentans BPR 2001
Text: The molecular weight of β-glucosidase (G3ase) determined by SDS-PAGE was about 81,200 (FIG. 2). Its isoelectric point (pI) determined by IEF-PAGE was about 6.0 (FIG. 3).

[2] = Specific activity of purified β-glucosidase (G3ase), glucose release from cellotriose; format: biochemical, Acetobacter xylinum subsp. sucrofermentans BPR 2001; settings: purified sample; 1 U = 1 μmol glucose from G3 at 30° C. for 2 hr
Protocol: Acetobacter xylinum subsp. sucrofermentans BPR 2001 strain was cultured in CSL-Fru medium using a jar fermenter (inner volume: 3 L, culture medium volume: 1.8 L) at 30° C. and pH5 for 68 hours. The resulting culture medium (about […] in total) was subjected to centrifugation to give its supernatant (3,600 ml). The resulting supernatant was subjected to salting-out with 60%-saturated ammonium sulfate, and the resulting precipitate was collected by centrifugation. The collected precipitate was solubilized into distilled water of 352 ml and dialyzed against distilled water (15 L). The resulting precipitate was collected and extracted three times with 20 mM sodium acetate buffer (pH5.5) containing 0.15 M NaCl. G3ase activity was found in the resulting extract. The extract was subjected to CM-Toyopearl 650M column (Tosoh Co. Ltd.; 3.2 cm in diameter, 13.3 cm in length) equilibrated with 20 mM sodium acetate buffer (pH5.5) containing 0.15 M NaCl to absorb the G3ase activity. […]
After reaction at 30° C. for 2 hr, a reaction solution (300 μl) of a glucose-measuring kit (Glucose CII test Wako: Wako Pure Chemical Industries, Ltd.) was added to the mixture, and reacted for 15 min at a room temperature, followed by the determination of an amount of glucose based on absorbance at 505 nm.

[3] = format: physicochemical, Acetobacter xylinum subsp. sucrofermentans BPR 2001
Text: The pH stability of β-glucosidase (G3ase) was studied. […] An optimum pH was about 5.5. The thermal stability of β-glucosidase (G3ase) was also studied.

B1: β-glucosidase (G3ase): β-glucosidase purified from Acetobacter xylinum subsp. sucrofermentans BPR 2001, amino acid sequence SEQ ID NO:7 (protein, listed as Acetobacter xylinum)
chain: MRLSRKIFLLSAVACGMALAQAPAFARHAHDGGGDQADARARQVLASMSLEDKMSLLFSVDGGGFNGSVAPPGGLGSAAYLRAPQGSGLPDLQISDAGLGVRNPAHIRRNGEAVSLPSGQSTASTWDMDMARQAGVMIGREAWQSGFNILLGGGADLTRDPRGGRNFEYAGEDPLQTGRMVGSTIAGVQSQHVISTLKHYAMNDLETSRMTMSADIDPVAMRESDLLGFEIALETGHPGAVMCSYNRVNDLYACENPYLLNKTLKQDWHYPGFVMSDWGATHSSARAALAGLDQESAGDHTDARPYFRTLLAADVKAGRVPEARINDMAERVVRALFAAGLVDHPAQRGPLDVVTDTLVAQKDEEEGAVLLRNQGNILPLSPTARIAVIGGHADAGVISGGGSSQVDPIGGEAVKGPGKKEWPGDPVYFPSSPLKAMQAEAPGARITYDPGTSIASAVRAARAADVVVVYATQFTFEGMDAPSMHLDDNADALITAVAAANPRTVVVMETGDPVLMPWNSSVAGVLEAWFPGSGGGPAIARLLFGKVAPSGHLTMTFPQAESQLAHPDIAGVTADNVFEMQFHTDQELVYDEGSDVGYRWFDRNHFKPLYPFGYGLTYTTFSTDGLKVTERHGQVTATFNVHNTGTRAGVDVPQVYVGLPDGGARRLAGWQRISLAPGESRQVSVQLEPRLLAHFDGKHDRWSVPSGTFRVWLASCATDDSQQTTMHLHGRTMAP
modifications: n at positions 15741 and 15767 may be a, g, t, or c
For B1, the “isoelectric point (pI)” value [1] was “about 6.0”, the Specific activity [2] was 840 U/mg-portein and the “optimum pH” value [3] was “about 5.5”. For the same molecule, the optimum temperature [3] was “about 40 °C”, the “temperature at which inactivated” value ([3]; 30-minute treatment at pH 5.5) was ≥ 50 °C and the “temperature at which stable” value ([3]; 30-minute treatment at pH 5.5) was ≤ 30 °C. For the same molecule, the “remaining activity (pH stability)” value ([3]; 3 h) was ≥ 80%.

From patent US6573076B1, “Gene, group of genes, and novel β-glucosidase” (Ajinomoto Co., Inc., priority 1997, dated 2003)
